Results on 42 molecules are retold here after article PMC10681739, “High-throughput data and modeling reveal insights into the mechanisms of cooperative DNA-binding by transcription factor proteins”.

The data set has as its target RUNX1 (Homo sapiens, UniProt Q01196). Description: gcPBM; 2 nM RUNX1. The conditions noted are these: tags: N-terminal GST (pDEST15), kept (PMC6008103); label: surface-attached array probe.

Sequence of RUNX1 (Q01196 whole entry): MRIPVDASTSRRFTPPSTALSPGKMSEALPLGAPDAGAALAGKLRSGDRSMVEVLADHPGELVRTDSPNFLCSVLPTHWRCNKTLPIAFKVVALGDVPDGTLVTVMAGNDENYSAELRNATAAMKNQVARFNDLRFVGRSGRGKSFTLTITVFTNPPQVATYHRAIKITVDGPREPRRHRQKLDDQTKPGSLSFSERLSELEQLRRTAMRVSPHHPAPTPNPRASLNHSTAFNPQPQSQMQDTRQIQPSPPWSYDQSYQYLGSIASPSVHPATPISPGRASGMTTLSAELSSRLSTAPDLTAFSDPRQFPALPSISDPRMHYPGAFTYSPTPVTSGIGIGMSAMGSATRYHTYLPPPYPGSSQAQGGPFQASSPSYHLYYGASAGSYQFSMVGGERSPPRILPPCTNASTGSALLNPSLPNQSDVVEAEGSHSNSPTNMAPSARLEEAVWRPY

B1: Table S3 C row 14 (dsDNA)
DNA 1: TCCTGCCGACGTGTTCTTCCGGTGGCGGAGCGGCGG
DNA 2: CCGCCGCTCCGCCACCGGAAGAACACGTCGGCAGGA
For the molecule B1, the binding signal is 791 PBM fluorescence, median of replicate spots.

B2: Table S3 C row 86 (dsDNA)
DNA 1: CGCGTGATGGACGCCCGGAAGCCGGCACAACAAATG
DNA 2: CATTTGTTGTGCCGGCTTCCGGGCGTCCATCACGCG
For B2, the binding signal was 777 PBM fluorescence, median of replicate spots.

B3: Table S3 C row 17 (dsDNA)
DNA 1: CGCGGGTCATGTGACCGGAAGGGCTCCTCACGGACG
DNA 2: CGTCCGTGAGGAGCCCTTCCGGTCACATGACCCGCG
In the case of B3, the binding signal is 798 PBM fluorescence, median of replicate spots.

B4: Table S3 C row 80 (dsDNA)
DNA 1: CAAAAGGGCTGCCAGTTTCCGCCCCTTCTAGCGAGC
DNA 2: GCTCGCTAGAAGGGGCGGAAACTGGCAGCCCTTTTG
In the case of B4, the binding signal was 794 PBM fluorescence, median of replicate spots.

B5: Table S3 C row 112 (dsDNA)
DNA 1: ACGTTGCCTCACTGCAGGAAGTGACCCAGGCCTTGC
DNA 2: GCAAGGCCTGGGTCACTTCCTGCAGTGAGGCAACGT
For B5, the binding signal is 771 PBM fluorescence, median of replicate spots.

B6: Table S3 C row 93 (dsDNA)
DNA 1: TCCTTCCCTGGCAACAGGAAGTGAAAATGCCAGGCC
DNA 2: GGCCTGGCATTTTCACTTCCTGTTGCCAGGGAAGGA
With B6, the binding signal was 766 PBM fluorescence, median of replicate spots.

B7: Table S3 C row 190 (dsDNA)
DNA 1: CGCTCGTAAGTGCTCCGGATGGAATCTGGTGCAGGG
DNA 2: CCCTGCACCAGATTCCATCCGGAGCACTTACGAGCG
With B7, the binding signal was 780 PBM fluorescence, median of replicate spots.

B8: Table S3 C row 91 (dsDNA)
DNA 1: CACATACTACTACAACTTCCGGCAGGCTCCGCGCCC
DNA 2: GGGCGCGGAGCCTGCCGGAAGTTGTAGTAGTATGTG
In the case of B8, the binding signal is 795 PBM fluorescence, median of replicate spots.

B9: Table S3 C row 45 (dsDNA)
DNA 1: CCGCTGGGGCAGGAGTTTCCGGCGGACTCGGCTAGG
DNA 2: CCTAGCCGAGTCCGCCGGAAACTCCTGCCCCAGCGG
With B9, the binding signal is 802 PBM fluorescence, median of replicate spots.

B10: Table S3 C row 25 (dsDNA)
DNA 1: CTCCAGGGGTGTCACCGGAAAAAGCCGTTTCTGGAG
DNA 2: CTCCAGAAACGGCTTTTTCCGGTGACACCCCTGGAG
As to B10, the binding signal was 765 PBM fluorescence, median of replicate spots.

B11: Table S3 C row 40 (dsDNA)
DNA 1: GCACCTGTATTGCCGTTTCCGGTTCGCCTTCGGAGC
DNA 2: GCTCCGAAGGCGAACCGGAAACGGCAATACAGGTGC
Regarding B11, the binding signal is 799 PBM fluorescence, median of replicate spots.

B12: Table S3 C row 193 (dsDNA)
DNA 1: CCGACCCCGCTGCCCCGGAAGGTGAGGCAAGCCTGG
DNA 2: CCAGGCTTGCCTCACCTTCCGGGGCAGCGGGGTCGG
Consider B12, for which the binding signal was 761 PBM fluorescence, median of replicate spots.

B13: Table S3 C row 99 (dsDNA)
DNA 1: CGCTCCAGGGCCTCCCGGATGGCCTAGTCGGGCCCG
DNA 2: CGGGCCCGACTAGGCCATCCGGGAGGCCCTGGAGCG
Turning to B13, the binding signal was 786 PBM fluorescence, median of replicate spots.

B14: Table S3 C row 4 (dsDNA)
DNA 1: CTCTCAACCCAGCCGCTTCCTGGTTGTTCGTCGCAA
DNA 2: TTGCGACGAACAACCAGGAAGCGGCTGGGTTGAGAG
Take B14: the binding signal is 782 PBM fluorescence, median of replicate spots.

B15: Table S3 C row 41 (dsDNA)
DNA 1: CAGACTCGGCGTCGGCTTCCGGCGGCGTCAGAGACG
DNA 2: CGTCTCTGACGCCGCCGGAAGCCGACGCCGAGTCTG
On to B15, for which the binding signal is 762 PBM fluorescence, median of replicate spots.

B16: Table S3 C row 155 (dsDNA)
DNA 1: TCCAGGCACTATTTTCGGAAGCAGAGACACAGTGCC
DNA 2: GGCACTGTGTCTCTGCTTCCGAAAATAGTGCCTGGA
Take B16: the binding signal was 791 PBM fluorescence, median of replicate spots.

B17: Table S3 C row 59 (dsDNA)
DNA 1: TCTTACGGGCGGGGCCGGAAGAGGGAGTCGCGCTGC
DNA 2: GCAGCGCGACTCCCTCTTCCGGCCCCGCCCGTAAGA
Take B17: the binding signal was 793 PBM fluorescence, median of replicate spots.

B18: Table S3 C row 169 (dsDNA)
DNA 1: CGCGGGCCCGGCCAGCGGAAGCCCCTGCGCCCGCGC
DNA 2: GCGCGGGCGCAGGGGCTTCCGCTGGCCGGGCCCGCG
Turning to B18, the binding signal is 779 PBM fluorescence, median of replicate spots.

B19: Table S3 C row 24 (dsDNA)
DNA 1: CCCACGCTCTGCGTGCTTCCGGCGAGCAAAGCCCCG
DNA 2: CGGGGCTTTGCTCGCCGGAAGCACGCAGAGCGTGGG
Consider B19, for which the binding signal is 766 PBM fluorescence, median of replicate spots.

B20: Table S3 C row 38 (dsDNA)
DNA 1: AGTGAAACATCAGAGCTTCCTGTTACATCACTCTGA
DNA 2: TCAGAGTGATGTAACAGGAAGCTCTGATGTTTCACT
Take B20: the binding signal is 789 PBM fluorescence, median of replicate spots.

B21: Table S3 C row 78 (dsDNA)
DNA 1: ATTCCAATGGCAGGCAGGAAATCTTGTAGTAGGTGA
DNA 2: TCACCTACTACAAGATTTCCTGCCTGCCATTGGAAT
For B21, the binding signal was 802 PBM fluorescence, median of replicate spots.

B22: Table S3 C row 102 (dsDNA)
DNA 1: CCCCGCGTCCCAGACCGGAAGAAGCCCGGCGCAGAC
DNA 2: GTCTGCGCCGGGCTTCTTCCGGTCTGGGACGCGGGG
For the molecule B22, the binding signal is 770 PBM fluorescence, median of replicate spots.

B23: Table S3 C row 109 (dsDNA)
DNA 1: GCAGCACGCAGCAACCGGAAGTCAATGGACGAAGAC
DNA 2: GTCTTCGTCCATTGACTTCCGGTTGCTGCGTGCTGC
Regarding B23, the binding signal was 792 PBM fluorescence, median of replicate spots.

B24: Table S3 C row 131 (dsDNA)
DNA 1: AGTTGGTAGCGCCAACGGAAGCCCATGCCAAACTTG
DNA 2: CAAGTTTGGCATGGGCTTCCGTTGGCGCTACCAACT
B24: the binding signal is 778 PBM fluorescence, median of replicate spots.

B25: Table S3 C row 15 (dsDNA)
DNA 1: CAGCCAGCCCTCGCACGGAAGCGAACTTGCTGTCAC
DNA 2: GTGACAGCAAGTTCGCTTCCGTGCGAGGGCTGGCTG
For the molecule B25, the binding signal is 769 PBM fluorescence, median of replicate spots.

B26: Table S3 C row 95 (dsDNA)
DNA 1: CGCAGGGTCACGTGACATCCTGCCTCGCCCCGCCCA
DNA 2: TGGGCGGGGCGAGGCAGGATGTCACGTGACCCTGCG
For the molecule B26, the binding signal is 783 PBM fluorescence, median of replicate spots.

B27: Table S3 C row 108 (dsDNA)
DNA 1: TCTGCCCTCCCAGCACTTCCGGGCTGGCAGAAGAGC
DNA 2: GCTCTTCTGCCAGCCCGGAAGTGCTGGGAGGGCAGA
Consider B27, for which the binding signal is 763 PBM fluorescence, median of replicate spots.

B28: Table S3 C row 97 (dsDNA)
DNA 1: CACCTGCTACTCAAAGTTCCGCCTCTCTTCAGCGAG
DNA 2: CTCGCTGAAGAGAGGCGGAACTTTGAGTAGCAGGTG
As to B28, the binding signal was 779 PBM fluorescence, median of replicate spots.

B29: Table S3 C row 66 (dsDNA)
DNA 1: CCAGGACAGCACCTATTTCCTGCTGGTGTAACAGAG
DNA 2: CTCTGTTACACCAGCAGGAAATAGGTGCTGTCCTGG
As to B29, the binding signal was 778 PBM fluorescence, median of replicate spots.

B30: Table S3 C row 56 (dsDNA)
DNA 1: CGCTCAGAGCTACGGCGGAAATGCCGCTCTTTTAAC
DNA 2: GTTAAAAGAGCGGCATTTCCGCCGTAGCTCTGAGCG
On to B30, for which the binding signal is 786 PBM fluorescence, median of replicate spots.

B31: Table S3 C row 28 (dsDNA)
DNA 1: GTTCCTAGTCCGCTCCGGAAATGCAACTGCGTACGG
DNA 2: CCGTACGCAGTTGCATTTCCGGAGCGGACTAGGAAC
Take B31: the binding signal was 793 PBM fluorescence, median of replicate spots.

B32: Table S3 C row 160 (dsDNA)
DNA 1: ACCCCGTAGCCGGCGCTTCCTGCCGAGGCTGGGGTC
DNA 2: GACCCCAGCCTCGGCAGGAAGCGCCGGCTACGGGGT
For B32, the binding signal was 766 PBM fluorescence, median of replicate spots.

B33: Table S3 C row 152 (dsDNA)
DNA 1: TTTCCCCGACCCCGCCGGAAGACCAGGCCGGCGCGG
DNA 2: CCGCGCCGGCCTGGTCTTCCGGCGGGGTCGGGGAAA
As for B33, the binding signal is 787 PBM fluorescence, median of replicate spots.

B34: Table S3 C row 84 (dsDNA)
DNA 1: GCTTCTGGGAGAAGCCGGAAGAGACCTGACCCTGAA
DNA 2: TTCAGGGTCAGGTCTCTTCCGGCTTCTCCCAGAAGC
B34: the binding signal was 782 PBM fluorescence, median of replicate spots.

B35: Table S3 C row 159 (dsDNA)
DNA 1: GTAAATACACTCATGTTTCCGCTCTCAGCCGTCAGT
DNA 2: ACTGACGGCTGAGAGCGGAAACATGAGTGTATTTAC
On to B35, for which the binding signal was 801 PBM fluorescence, median of replicate spots.

B36: Table S3 C row 195 (dsDNA)
DNA 1: TCGCGCTGGACGAAGCGGAAGAAGATGGCGCTCACC
DNA 2: GGTGAGCGCCATCTTCTTCCGCTTCGTCCAGCGCGA
Regarding B36, the binding signal was 794 PBM fluorescence, median of replicate spots.

B37: Table S3 C row 191 (dsDNA)
DNA 1: GATTGGTTCTCTAAGCTTCCGTCAGTTTACAATCCT
DNA 2: AGGATTGTAAACTGACGGAAGCTTAGAGAACCAATC
Regarding B37, the binding signal is 775 PBM fluorescence, median of replicate spots.

B38: Table S3 C row 111 (dsDNA)
DNA 1: GGATCCAGGACACTCCGGAAGACATCGTGCTGGAAG
DNA 2: CTTCCAGCACGATGTCTTCCGGAGTGTCCTGGATCC
As to B38, the binding signal was 774 PBM fluorescence, median of replicate spots.

B39: Table S3 C row 148 (dsDNA)
DNA 1: GGCTGCCCGTACTCCCGGAAGCCGAATCCCGGCTGG
DNA 2: CCAGCCGGGATTCGGCTTCCGGGAGTACGGGCAGCC
For the molecule B39, the binding signal was 775 PBM fluorescence, median of replicate spots.

B40: Table S3 C row 124 (dsDNA)
DNA 1: ACTTGGGGCATGCAATTTCCGGCAGCACAGAAAACA
DNA 2: TGTTTTCTGTGCTGCCGGAAATTGCATGCCCCAAGT
Regarding B40, the binding signal is 766 PBM fluorescence, median of replicate spots.

B41: Table S3 C row 77 (dsDNA)
DNA 1: TCGGGCCGGGAGCCGGTTCCGGCTGAGTCGGCAGGG
DNA 2: CCCTGCCGACTCAGCCGGAACCGGCTCCCGGCCCGA
For the molecule B41, the binding signal is 765 PBM fluorescence, median of replicate spots.

B42: Table S3 C row 92 (dsDNA)
DNA 1: TCCCTAGTTTCTGCCCGGAAGATGGAGCCGCCATCT
DNA 2: AGATGGCGGCTCCATCTTCCGGGCAGAAACTAGGGA
As for B42, the binding signal is 788 PBM fluorescence, median of replicate spots.
